{"source": "patent US7045617", "proteins": {"B1": {"name": "insulin receptor protein tyrosine kinase (IRK), activated recombinant (protein)", "chain": "VFPCSVYVPDEWEVSREKITLLRELGQGSFGMVYEGNARDIIKGEAETRVAVKTVNESASLRERIEFLNEASVMKGFTCHHVVRLLGVVSKGQPTLVVMELMAHGDLKSYLRSLRPEAENNPGRPPPTLQEMIQMAAEIADGMAYLNAKKFVHRDLAARNCMVAHDFTVKIGDFGMTRDIYETDYYRKGGKGLLPVRWMAPESLKDGVFTTSSDMWSFGVVLWEITSLAEQPYQGLSNEQVLKFVMDGGYLDQPDNCPERVTDLMRMCWQFNPKMRPTFLEIVNLLKDDLHPSFPEVSFFHSEENK"}}, "biological_target": "T1, IRS727 peptide substrate", "T1 chain": "KKKLPATGDYMNMSPVGD", "data": [{"protein": "B1", "values": [{"measurement": "Km app of the peptide substrate", "result": "Km app (IRS727)=280 µM"}]}]}
